Assay results published in patent publication US8852587B2 (priority 2008, dated 2014).
Entries after “also recorded” stand apart in the source; their conditions may differ. Read-outs that look alike come from different tables or passages of the source. Square brackets hold non-standard residues; d marks the D form. Peptide text beside a SMILES is read from it.

Assays:
[1] = biological target: PrP^C and PrP^Sc (Mus musculus, UniProt P04925); assay type: binding
[2] = test system: ScN2a cells; assay type: cell-based, murine
[3] = biological target: PrP (Mus musculus, UniProt P04925); design: species or system 129 SvEv mice; conditions: in vivo
[4] = test system: PrP^Sc in ScN2a cells
[5] = biological target: T1, recombinant mouse PrP (Mus musculus, UniProt P04925); test: biochemical; assay type: binding
[6] = test system: scrapie (RML) prions; design: species or system CD1 mice; conditions: in vivo
[7] = biological target: T1, recombinant mouse PrP; assay type: binding
Target sequence in this assay (P04925 23-230 limits assumed): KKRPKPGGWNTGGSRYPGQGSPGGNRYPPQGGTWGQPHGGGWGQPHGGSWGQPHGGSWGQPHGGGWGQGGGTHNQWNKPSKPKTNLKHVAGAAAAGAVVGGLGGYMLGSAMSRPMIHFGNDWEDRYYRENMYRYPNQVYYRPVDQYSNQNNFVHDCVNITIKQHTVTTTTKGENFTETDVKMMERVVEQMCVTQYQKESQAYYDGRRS

[8] = test system: MBPAc1-11 T cell receptor transgenic CD4+ T cells; assay type: cell-based, mouse
[9] = test system: scrapie (RML) prions; design: species or system C57/B6 mice; conditions: mouse, in vivo, ip
[10] = biological target: sheep PrP^C and sheep prions (Ovis aries, UniProt P23907)
[11] = biological target: T1, recombinant mouse PrP
[12] = test system: PrP^Sc in ScN2a cells; remark: listed apart in the source
[13] = test system: prions in treated ScN2a cells; design: species or system tg20 mice; conditions: mouse, in vivo

Chain of PrP (P04925 23-230 limits assumed): as above

## CSCC[C@@H](NC(=O)[C@@H](CC(=O)O)NC(=O)[C@@H](Cc1ccc(O)cc1)NC(=O)[C@@H](Cc1c[nH]c2ccccc12)NC(=O)CN)C(=O)N[C@H](C)C(=O)N[C@H](CC(=O)O)C(=O)N[C@H](CCCNC(=N)N)C(=O)N[C@H](CCC(=O)O)C(=O)N[C@H](Cc1c[nH]c2ccccc12)C(=O)N[C@H](CC(N)=O)C(=O)N[C@H](Cc1c[nH]c2ccccc12)C(=O)N[C@H](CCCNC(=N)N)C(=O)N[C@H](C)C(=O)N[C@H](CS)C(=O)N[C@H](Cc1ccccc1)C(=O)N[C@H](Cc1ccc(O)cc1)C(=O)O [(D-)riCDR3H, gwydmadrewnwracfy] (H-G[dW][dY][dD][dM][dA][dD][dR][dE][dW][dN][dW][dR][dA][dC][dF][dY]-OH)
[1]
  PrP conformer recognized by immunoprecipitation / pull-down: pulled down only PrP^Sc in a conformation-specific manner; also recorded: pulled down only PrP from scrapie-infected homogenates
[2]
  competition of staining by scFvW226: could be competed by scFvW226
  staining pattern of live ScN2a cells: staining all over the cell
[3]
  overcoming self tolerance of humoral immune response against PrP: able to overcome self tolerance of humoral immune response against PrP
[4]
  antiprion activity (prion clearing) of fragments: reinstated antiprion activity
  concentration at which antiprion activity was exhibited: 4 µM
[5]
  Kd: 1000 to 10000 nM

## H-YFCARWNWERDAMDYWG-OH [CDR3H]
[1]
  PrP conformer recognized by immunoprecipitation / pull-down: conformation-specific recognition of only PrP^Sc; also recorded: pulled down only PrP^Sc in a conformation-specific manner; also recorded: pulled down only PrP from scrapie-infected homogenates
[2]
  competition of staining by scFvW226: could be competed by scFvW226
  digestion by trypsin / protease resistance: could be digested by trypsin
  staining pattern of live ScN2a cells: stained only intracellular compartments
[6]; ip
  survival of the one surviving immunized mouse: > 10 months
[6]; mouse
  protection from prion disease: able to protect from prion disease
[6]; mouse, ip
  average incubation time of the four immunized mice that died: 205 days
[3]
  clones that only recognized the immunogen: 8
  hybridoma secreting mABs recognizing both the immunogen and mouse PrP: 28
[7]
  binding by enzyme-linked immunosorbent assay: weak binding to recombinant mouse PrP

B1: mAB W226 (antibody, V domains shown)
VH: EVQLQQSGAELARPGTSVNLSCKTSGYSFTGYGVSWVKQRIGQGLEWIGEIYPRSGNTYYNEKFKGKATLTADKSSNTAYMELRSLTSEDSAVYFCARWNWERDAMDYWGQGTSVTVSSAKTTPPSDYPLA
VL: DIVMTQTPLSLPVSLGDQASISCRSSQSLESSSGYPHLNWYLQKPGQSPQLLIYRVSNRFSGVLDRFSGSGSGTDFTLQISRVEAEDLGVYFCLQITHVPWTFGGGTKLEIKRADAAPTVSAA
[8]
  T cell proliferation: augmented proliferation of Ag-specific T cells; also recorded: increased T cell proliferation
[1]
  PrP conformer recognized by immunoprecipitation / pull-down: pulls down readily PrP^C from mouse brain homogenates; also recorded: binding to both PrP^C and PrP^Sc was detected
[9]
  survival time: significant effect on increasing the survival time
  weight loss: none of the treated mice experienced any weight loss
[10]
  binding of PrP^C from normal sheep homogenate: weak binding of PrP^C from normal sheep homogenate
[5]; read-out: KD
  Kd: 0.5 nM

B2: scFvW226: scFv: variable heavy and light chain domains of W226 connected by (Gly4Ser)3-linker, C-terminal myc- and his6-tags; SEQ ID NO:6 (protein)
scFv: MKYLLPTAAAGLLLLAAQPAMAMAEVQLQQSGAELARPGTSVNLSCKTSGYSFTGYGVSWVKQRIGQGLEWIGEIYPRSGNTYYNEKFKGKATLTADKSSNTAYMELRSLTSEDSAVYFCARWNWERDAMDYWGQGTSVTVSSAKTTPPSDYPLAGGGGSGGGGSGGGGSDIVMTQTPLSLPVSLGDQASISCRSSQSLESSSGYPHLNWYLQKPGQSPQLLIYRVSNRFSGVLDRFSGSGSGTDFTLQISRVEAEDLGVYFCLQITHVPWTFGGGTKLEIKRADAAPTVSAAEEQKLISEEDLEHHHHHH
modifications: C-terminal myc and His6 tags; scFv
[8]
  T cell proliferation: augmented proliferation of Ag-specific T cells; also recorded: increased T cell proliferation
[11]
  binding activity to recombinant mouse PrP after heat incubation: retained binding activity
  binding activity to recombinant mouse PrP after serum incubation: retained binding activity
[1]
  PrP conformer recognized by immunoprecipitation / pull-down: recognizes both PrP^C and PrP^Sc; also recorded: could precipitate both PrP^C and PrP^Sc; also recorded: immunoprecipitated both PrP^C and PrP^Sc
[12]
  antiprion effect after transfection into ScN2a cells: clear time-dependent antiprion effect
  antiprion effect of conditioned medium of transfected N2a cells: prions were cleared
[9]
  survival time: significant effect on increasing the survival time
  weight loss: none of the treated mice experienced any weight loss
[4]
  antiprion activity: antiprion active
  concentrations with prion-clearing effects: > 3.2 nM
  minimal / smallest effective concentration clearing prions: 4 nM
[13]
  number of sick n/n0: 0/5
